According to US20190016794A1 (Boehringer Ingelheim, published 2019):

How the values were obtained:
human TNF-alpha [1] = target: T1, human TNF-alpha (human, UniProt P01375 77-233); assay: cell-based or functional assay
human TNF-alpha [2] = target: T1, human TNF-alpha; assay: cell-based or functional assay; remark: listed apart in the source
cynomolgus TNF-alpha = cynomolgus TNF-alpha (cynomolgus, UniProt P79337 77-233, limits assumed); assay: cell-based or functional assay
human TNF-alpha [3] = target: T1, human TNF-alpha; assay: cell-based or functional assay; remark: listed apart in the source
human TNF-alpha [4] = target: T1, human TNF-alpha; assay: cell-based or functional assay; remark: listed apart in the source
recombinant human IL23 [5] = target: T2, recombinant human IL23 (human, UniProt P29460 23-328); assay: cell-based or functional assay
T2 sequence 1: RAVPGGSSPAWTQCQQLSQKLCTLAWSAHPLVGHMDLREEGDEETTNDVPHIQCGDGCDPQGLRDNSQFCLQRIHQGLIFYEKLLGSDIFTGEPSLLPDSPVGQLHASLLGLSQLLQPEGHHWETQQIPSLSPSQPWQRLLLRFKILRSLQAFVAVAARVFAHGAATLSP
T2 sequence 2: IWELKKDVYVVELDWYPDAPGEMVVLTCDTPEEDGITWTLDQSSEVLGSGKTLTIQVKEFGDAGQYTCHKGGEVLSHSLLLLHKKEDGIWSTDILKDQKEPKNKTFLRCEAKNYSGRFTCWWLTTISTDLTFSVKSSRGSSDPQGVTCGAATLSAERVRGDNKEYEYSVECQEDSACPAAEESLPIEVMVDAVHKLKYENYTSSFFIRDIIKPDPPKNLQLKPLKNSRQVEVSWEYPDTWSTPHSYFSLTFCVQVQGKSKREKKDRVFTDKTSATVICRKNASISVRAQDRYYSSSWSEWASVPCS

recombinant human IL23 [6] = target: T2, recombinant human IL23; assay: cell-based or functional assay; remark: listed apart in the source
[7] = target: T3, recombinant cynomolgus IL23 (cynomolgus); assay: cell-based or functional assay
T3 chain 1: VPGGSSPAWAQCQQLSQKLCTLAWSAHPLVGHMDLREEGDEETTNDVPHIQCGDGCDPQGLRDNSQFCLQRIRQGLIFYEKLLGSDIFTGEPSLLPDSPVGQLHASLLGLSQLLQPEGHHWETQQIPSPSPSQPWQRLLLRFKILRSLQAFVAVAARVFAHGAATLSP
T3 chain 2: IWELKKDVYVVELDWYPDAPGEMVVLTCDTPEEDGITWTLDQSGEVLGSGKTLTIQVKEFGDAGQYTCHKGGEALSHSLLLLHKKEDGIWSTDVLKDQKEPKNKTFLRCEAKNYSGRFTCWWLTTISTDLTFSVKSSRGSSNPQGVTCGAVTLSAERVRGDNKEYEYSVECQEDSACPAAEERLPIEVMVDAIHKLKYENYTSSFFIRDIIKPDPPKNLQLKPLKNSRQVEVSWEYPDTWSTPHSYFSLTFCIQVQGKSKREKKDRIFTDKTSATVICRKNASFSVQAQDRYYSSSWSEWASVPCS

recombinant human IL23 [8] = target: T2, recombinant human IL23; assay: cell-based or functional assay; remark: listed apart in the source
recombinant human IL23 [9] = target: T2, recombinant human IL23; assay: cell-based or functional assay; remark: listed apart in the source
membrane bound TNF-alpha [10] = target: T4, membrane bound TNF-alpha; assay: flow cytometry, mTNF-transfected CHO cells (geomean)
T4 construct: whole, on cells; also called mTNF; membrane expressed TNF-alpha
T4 sequence (P01375 whole entry): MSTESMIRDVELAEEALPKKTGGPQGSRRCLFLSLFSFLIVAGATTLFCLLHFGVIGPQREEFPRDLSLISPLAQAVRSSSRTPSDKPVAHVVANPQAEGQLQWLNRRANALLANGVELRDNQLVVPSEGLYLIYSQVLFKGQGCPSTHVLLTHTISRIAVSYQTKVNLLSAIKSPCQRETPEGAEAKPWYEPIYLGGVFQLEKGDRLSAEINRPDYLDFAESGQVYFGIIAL
Protocol: (§1) All reagents were prepared in flow cytometry staining buffer (BioLegend). Membrane expressed TNF-alpha transfected cell lines (Jurkat and CHO) and parental cell lines were harvested from tissue culture vessels, washed, counted and resuspended to 1×10̂6 cells/ml in flow cytometry staining buffer. One hundred microliters of the cell suspension was added to 96 well microtiter plates and placed on ice. Titrations of test compounds were prepared and 50 uL was added to the cells. After sixty minute incubation on ice, the cell+test compounds were washed and 50 uL of a secondary antibody (Jackson ImmunoResearch) was added. The samples were incubated in the dark, at 4 C, for 60 minutes, followed by washes. After a final wash the cells were resuspended in 60 uL of fixative (BD Bioscience). Median fluorescence was determined for each sample in a flow cytometer and plotted versus the concentration of the test sample. EC₅₀ values were calculated using the 4 Parameter Logistic enabled by the Excel add-in XLfit (Activity Base software, ID Business Solutions, Ltd.).

membrane bound TNF-alpha [11] = target: T4, membrane bound TNF-alpha; assay: flow cytometry, mTNF-transfected Jurkat cells (geomean)
Protocol: as §1

recombinant human IL23 [12] = target: T2, recombinant human IL23; assay: cell-based or functional assay; remark: listed apart in the source
recombinant human IL23 [13] = target: T2, recombinant human IL23; assay: cell-based or functional assay; remark: listed apart in the source
human TNF-alpha [14] = target: T1, human TNF-alpha; assay: SPR (ProteOn XPR36), compound captured on goat anti-human IgG Fc, antigen injected
Protocol: (§2) SPR experiments were performed on a ProteOn XPR36 instrument (Bio Rad). A GLM chip was preconditioned with sequential injections of 60 sec of 0.5% SDS, 50 mM NaOH, and 100 mM HCl at a flow rate of 30 μl/min both vertical and horizontal directions. […] Goat-anti-human IgG (GAHA) Fc gamma (Invitrogen) at a concentration of 30 μg/ml in 10 mM, pH 5.0 sodium acetate buffer was immobilized to 8,000 resonance units on the activated GLM chip in 6 horizontal channels. The chip was finally deactivated with 1 M ethanolamine HCl in 6 horizontal channels. The prepared GAHA chip was rotated to vertical direction to capture test compounds, over 5 vertical channels and the last channel was used as a column reference. The captured chip was then rotated again to the horizontal direction for binding. […] The dissociation was allowed for 2 hour. […] The regenerated GAHA was ready for another binding cycle.

Linked human IL-23 = target: T5, Linked human IL-23 (human, UniProt P29460 23-328); assay: SPR (ProteOn XPR36), compound captured on goat anti-human IgG Fc, linked human IL-23 injected at 0.625-10 nM
T5 construct: Printed as 'Linked human IL-23 (Boehringer Ingelheim Pharmaceuticals, Inc)' in the SPR method
T5 sequence 1: T2 sequence 1
T5 sequence 2: T2 sequence 2
Protocol: as §2

T1 sequence (P01375 77-233 limits assumed): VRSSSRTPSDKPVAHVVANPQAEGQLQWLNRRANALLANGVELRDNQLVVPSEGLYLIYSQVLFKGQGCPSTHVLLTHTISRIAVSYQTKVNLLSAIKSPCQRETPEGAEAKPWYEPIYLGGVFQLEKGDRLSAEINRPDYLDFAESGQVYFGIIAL
Chain of cynomolgus TNF-alpha (P79337 77-233 limits assumed): as the sequence (P01375 77-233 limits assumed) above, with L37V, R44T, T72N, R138L counted along it

B1: Compound O (bispecific antibody)
chain 1: not shown
chain 2: EIVLTQSPATLSLSPGERATLSCRASQSVYSYLAWYQQKPGQAPRLLIYDASNRATGIPARFSGSGSGTDFTLTISSLEPEDFAVYYCQQRSNWPPFTFGPGTKVDIKGGGSGGGGQVQLVQSGAEVKKPGSSVKVSCKASGYTFTDQTIHWMRQAPGQGLEWIGYIYPRDDSPKYNENFKGKVTITADKSTSTAYMELSSLRSEDTAVYYCAIPDRSGYAWFIYWGQGTLVTVSSLGGGSGRTVAAPSVFIFPPSDEQLKSGTASVVCLLNNFYPREAKVQWKVDNALQSGNSQESVTEQDSKDSTYSLSSTLTLSKADYEKHKVYACEVTHQGLSSPVTKSFNRGEC
notes: GS linkers, isotype IgG1KO; counterpart of Compound E without YTE; also called Compound 0
L929 TNF Cytotox IC50 (human TNF-alpha [1]): 0.0042 nM | L929 TNF Cytotox IC90 (human TNF-alpha [1]): 0.016 nM | HeLa IL8 Hi-Hu-TNF IC50 (human TNF-alpha [2]): 0.43 nM | HeLa IL8 Hi-Hu-TNF IC90 (human TNF-alpha [2]): 0.76 nM | HeLa IL8 Lo-Hu-TNF IC50 (human TNF-alpha [2]): 0.0099 nM | HeLa IL8 Lo-Hu-TNF IC90 (human TNF-alpha [2]): 0.043 nM | HeLa IL8 Cyno-TNF IC50 (cynomolgus TNF-alpha): 0.3 nM | HeLa IL8 Cyno-TNF IC90 (cynomolgus TNF-alpha): 0.97 nM | TNF-IL8 Whole Blood IC50 (human TNF-alpha [3]): 0.32 nM | TNF-IL8 Whole Blood IC90 (human TNF-alpha [3]): 0.47 nM | Dual Phospho Jurkat-pNf-Kb IC50 (human TNF-alpha [4]): 210 pM | Dual Phospho Jurkat-pNf-Kb IC90 (human TNF-alpha [4]): 740 pM | Dual Phospho DB-pSTAT3 IC50 (recombinant human IL23 [5]): 210 pM | Dual Phospho DB-pSTAT3 IC90 (recombinant human IL23 [5]): 580 pM | hIL23 pSTAT3 DB assay IC50 (recombinant human IL23 [6]): 300 pM | hIL23 pSTAT3 DB assay IC90 (recombinant human IL23 [6]): 720 pM | CynoIL23 MSA IC50 [7]: 0.12 nM | CynoIL23 MSA IC90 [7]: 0.8 nM | huIL23 MSA IC50 (recombinant human IL23 [8]): 0.21 nM | huIL23 MSA IC90 (recombinant human IL23 [8]): 2.2 nM | IL23A pSTAT3 (MG) IC50 (recombinant human IL23 [9]): 160 pM | IL23A pSTAT3 (MG) IC90 (recombinant human IL23 [9]): 650 pM | EC50 (membrane bound TNF-alpha [10]): 0.77 nM | EC50 (membrane bound TNF-alpha [11]): 0.27 nM

B2: Compound E (bispecific antibody)
chain 1: DIQMTQSPSSLSASVGDRVTITCKASRDVAIAVAWYQQKPGKVPKLLIYWASTRHTGVPSRFSGSGSRTDFTLTISSLQPEDVADYFCHQYSSYPFTFGSGTKLEIKGGGSGGGGQVQLVESGGGVVQPGRSLRLSCAASGFIFSSYAMHWVRQAPGNGLEWVAFMSYDGSNKKYADSVKGRFTISRDNSKNTLYLQMNSLRAEDTAVYYCARDRGIAAGGNYYYYGMDVWGQGTTVTVSSLGGGSGASTKGPSVFPLAPSSKSTSGGTAALGCLVKDYFPEPVTVSWNSGALTSGVHTFPAVLQSSGLYSLSSVVTVPSSSLGTQTYICNVNHKPSNTKVDKRVEPKSCDKTHTCPPCPAPEAAGGPSVFLFPPKPKDTLYITREPEVTCVVVDVSHEDPEVKFNWYVDGVEVHNAKTKPREEQYNSTYRVVSVLTVLHQDWLNGKEYKCKVSNKALPAPIEKTISKAKGQPREPQVYTLPPSREEMTKNQVSLTCLVKGFYPSDIAVEWESNGQPENNYKTTPPVLDSDGSFFLYSKLTVDKSRWQQGNVFSCSVMHEALHNHYTQKSLSLSPGK
chain 2: B1 chain 2
notes: GS linkers, isotype IgG1KO-YTE
L929 TNF Cytotox IC50 (human TNF-alpha [1]): 0.0041 nM | L929 TNF Cytotox IC90 (human TNF-alpha [1]): 0.017 nM | HeLa IL8 Hi-Hu-TNF IC50 (human TNF-alpha [2]): 0.32 nM | HeLa IL8 Hi-Hu-TNF IC90 (human TNF-alpha [2]): 0.53 nM | HeLa IL8 Lo-Hu-TNF IC50 (human TNF-alpha [2]): 0.0092 nM | HeLa IL8 Lo-Hu-TNF IC90 (human TNF-alpha [2]): 0.035 nM | TNF-IL8 Whole Blood IC50 (human TNF-alpha [3]): 0.34 nM | TNF-IL8 Whole Blood IC90 (human TNF-alpha [3]): 0.61 nM | Dual Phospho Jurkat-pNf-Kb IC50 (human TNF-alpha [4]): 260 pM | Dual Phospho Jurkat-pNf-Kb IC90 (human TNF-alpha [4]): 340 pM | Dual Phospho DB-pSTAT3 IC50 (recombinant human IL23 [5]): 230 pM | Dual Phospho DB-pSTAT3 IC90 (recombinant human IL23 [5]): 770 pM | hIL23 pSTAT3 DB assay IC50 (recombinant human IL23 [6]): 300 pM | hIL23 pSTAT3 DB assay IC90 (recombinant human IL23 [6]): 700 pM | CynoIL23 MSA IC50 [7]: 0.077 nM | CynoIL23 MSA IC90 [7]: 1.2 nM | huIL23 MSA IC50 (recombinant human IL23 [8]): 0.2 nM | huIL23 MSA IC90 (recombinant human IL23 [8]): 1.7 nM | IL23A pSTAT3 (MG) IC50 (recombinant human IL23 [9]): 140 pM | IL23A pSTAT3 (MG) IC90 (recombinant human IL23 [9]): 830 pM | IC50, IL-23-dependent STAT3 activation (DB-STAT3Luc10 luciferase) (recombinant human IL23 [12]): 0.212 nM | IC90, IL-23-dependent STAT3 activation (DB-STAT3Luc10 luciferase) (recombinant human IL23 [12]): 0.965 nM | First test IC50, IL-23-dependent STAT3 activation (luciferase) (recombinant human IL23 [13]): 0.17 nM | GEOMEAN IC50, IL-23-dependent STAT3 activation (luciferase) (recombinant human IL23 [13]): 0.19 nM | GEOMEAN IC90, IL-23-dependent STAT3 activation (luciferase) (recombinant human IL23 [13]): 0.859 nM | EC50 (membrane bound TNF-alpha [10]): 0.45 nM | EC50 (membrane bound TNF-alpha [11]): 0.2 nM | Kd (human TNF-alpha [14]): 0.00411 nM | Kd (Linked human IL-23): 0.007 nM
